From the supplement of paper PMC10567573

B1: SMOC2 (parent)
chain: DCAGSPQKPLCASDGRTFLSRCEF
B2: ZNF511 (parent)
chain: HLYPADFRFDKPKKSRSPASAEAP

Variants of: B1
Assay: protein stability index of a GFP-peptide fusion (GPS, HEK-293T) (PSI 1-6); higher = more stable
Details: c terminus: a fixed tail appended
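Also: lentivirally expressed fusions sorted by FACS into six bins by GFP to DsRed ratio, PSI derived from sequencing read proportions per bin multiplied by bin number.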

Variant	protein stability index
DCAGSPQKMLCASDGRTFLSRCEF	2.63
DCAGSPQKRLCASDGRTFLSRCEF	2.77
DCAGSPQKDLCASDGRTFLSRCEF	2.97
DCAGSPQKHLCASDGRTFLSRCEF	2.36
DCAGSPQKWLCASDGRTFLSRCEF	1.04
DCAGSPQKGLCASDGRTFLSRCEF	2.73
DCAGSPQKELCASDGRTFLSRCEF	2.72
DCAGSPQKQLCASDGRTFLSRCEF	3.13
DCAGSPQKPLCASDGRTYLSRCEF	3.09
DCAGSPQKPLCASDGRTSLSRCEF	3.83
DCAGSPQKPLCASDGRTWLSRCEF	1.79
DCAGSPQKPLCASDGRTLLSRCEF	4.12
DCAGSPQKPLCASDGRTMLSRCEF	4.01
DCAGSPQKPLCASDGRTHLSRCEF	4.32
DCAGSPQKPLCASDGRTQLSRCEF	3.89
DCLGSPQKPLCASDGRTFLSRCEF	2.73
DCKGSPQKPLCASDGRTFLSRCEF	2.89
DCWGSPQKPLCASDGRTFLSRCEF	2.21
DCEGSPQKPLCASDGRTFLSRCEF	3.01
DCVGSPQKPLCASDGRTFLSRCEF	2.66
DCAGSPQKPLCASAGRTFLSRCEF	2.52
DCAGSPQKPLCASLGRTFLSRCEF	2.2
DCAGSPQKPLCASFGRTFLSRCEF	1.81
DCAGSPQKPLCASEGRTFLSRCEF	2.54
DCAGSPQKPLCASKGRTFLSRCEF	2.4

Variant	protein stability index
DCAGSPQKPLCASNGRTFLSRCEF	2.47
DCAGSPQKPLCASDTRTFLSRCEF	2.65
DCAGSPQKPLCASDMRTFLSRCEF	2.81
DCAGSPQKPLCASDERTFLSRCEF	4.05
DCAGSPQKPLCASDARTFLSRCEF	4.08
DCAGSPQKPLCASDRRTFLSRCEF	2.83
DCAGSPQKPLCASDHRTFLSRCEF	2.27
DCAGSPQKPLCASDSRTFLSRCEF	2.5
DCAGSPQKPLCASDPRTFLSRCEF	3
DCAGSPQKPLCASDKRTFLSRCEF	2.3
DCAGSPQKPLCASDGRTFLSECEF	3.62
DCAGSPQKPLCASDGRTFLSICEF	1.67
DCAGSPQKPLCASDGRTFLSLCEF	3.02
DCAGSPQKPLCASDGRTFLSGCEF	4.57
DCAGSPQKPLCASDGRTFLSKCEF	2.67
DCAGSPQKPLCASDGRTFLSVCEF	2.65
DCAGSPQKPLCASDGRTFLSRKEF	4.42
DCAGSPQKPLCASDGRTFLSRHEF	3.68
DCAGSPQKPLCASDGRTFLSRNEF	4.36
DCAGSPQKPLCASDGRTFLSRQEF	4.19
DCAGSPDKPLCASDGRTFLSRCEF	2.94
DCAGSPEKPLCASDGRTFLSRCEF	1.81
DCAGSPFKPLCASDGRTFLSRCEF	1.75
DCAGSPWKPLCASDGRTFLSRCEF	2.55
NCAGSPQKPLCASDGRTFLSRCEF	2.2

Variant	protein stability index
LCAGSPQKPLCASDGRTFLSRCEF	2.85
ECAGSPQKPLCASDGRTFLSRCEF	3.69
KCAGSPQKPLCASDGRTFLSRCEF	2.59
DCAGSPQKPLCGSDGRTFLSRCEF	2.29
DCAGSPQKPLCQSDGRTFLSRCEF	3.1
DCAGSPQKPLCSSDGRTFLSRCEF	4.06
DCAGSPQKPLCMSDGRTFLSRCEF	2.7
DCAGSPQKPWCASDGRTFLSRCEF	2.16
DCAGSPQKPNCASDGRTFLSRCEF	2.08
DCAGSPQKPACASDGRTFLSRCEF	2.92
DCAGSPQKPDCASDGRTFLSRCEF	3.29
DCAGSPQKPKCASDGRTFLSRCEF	3.1
DMAGSPQKPLCASDGRTFLSRCEF	2.86
DVAGSPQKPLCASDGRTFLSRCEF	2.58
DSAGSPQKPLCASDGRTFLSRCEF	2.18
DKAGSPQKPLCASDGRTFLSRCEF	3.03
DCAGSPQKPLCASDGRTFLYRCEF	1.9
DCAGSPQKPLCASDGRTFLFRCEF	1.25
DCAGSFQKPLCASDGRTFLSRCEF	1.76
DCAGSTQKPLCASDGRTFLSRCEF	2.53
DCAGSIQKPLCASDGRTFLSRCEF	2.34
DCAGSRQKPLCASDGRTFLSRCEF	2.19
DCAGSPQKPLEASDGRTFLSRCEF	3.46
DCAGSPQKPLPASDGRTFLSRCEF	3.47
DCAGSPQKPLRASDGRTFLSRCEF	2.28

Variant	protein stability index
DCAGSPQKPLSASDGRTFLSRCEF	3.19
DCAGSPQKPLGASDGRTFLSRCEF	2.04
DCAGSPQKPLKASDGRTFLSRCEF	2.72
DCAGSPQKPLFASDGRTFLSRCEF	1.8
DCAGSPQKPLVASDGRTFLSRCEF	2.66
DCAGSPQRPLCASDGRTFLSRCEF	2.83
DCAGSPQWPLCASDGRTFLSRCEF	2.46
DCAGSPQCPLCASDGRTFLSRCEF	2.18
DCAGSPQHPLCASDGRTFLSRCEF	2.48
DCAGSPQEPLCASDGRTFLSRCEF	2.17
DCAGSPQNPLCASDGRTFLSRCEF	2.3
DCAGSPQKPLCASDGRTFPSRCEF	3.97
DCAGSPQKPLCASDGRTFRSRCEF	3.35
DCAGSPQKPLCASDGRAFLSRCEF	2.83
DCAGSPQKPLCASDGRYFLSRCEF	2.77
DCAGSPQKPLCASDGRLFLSRCEF	2.11
DCAGSPQKPLCASDGRIFLSRCEF	2.33
DCAGSPQKPLCASDGRDFLSRCEF	3.12
DCAGSPQKPLCASDGRWFLSRCEF	1.29
DCAGSPQKPLCASDGRTFLSRCGF	1.5
DCAGSPQKPLCASDGRTFLSRCQF	3.27
DCAGSPQKPLCASDGRTFLSRCMF	2.1
DCAGSPQKPLCASDGRTFLSRCFF	2.38
DCAGSPQKPLCASDGRTFLSRCHF	2.46
DCAGSPQKPLCASDGATFLSRCEF	2.99

Variant	protein stability index
DCAGSPQKPLCASDGLTFLSRCEF	2.5
DCAGSPQKPLCASDGITFLSRCEF	2.4
DCAFSPQKPLCASDGRTFLSRCEF	2.23
DCAMSPQKPLCASDGRTFLSRCEF	2.32
DCAASPQKPLCASDGRTFLSRCEF	2.77
DCAGSPQKPLCANDGRTFLSRCEF	2.82
DCAGSPQKPLCARDGRTFLSRCEF	2.34
DCAGSPQKPLCALDGRTFLSRCEF	2.07
DCAGSPQKPLCAMDGRTFLSRCEF	2.3
DCAGSPQKPLCAQDGRTFLSRCEF	2.58
DCAGSPQKPLCAWDGRTFLSRCEF	2.09
DCAGSPQKPLCAPDGRTFLSRCEF	1.9
DCAGSPQKPLCAGDGRTFLSRCEF	2.08
DCAGSPQKPLCAKDGRTFLSRCEF	2.39
DCAGSPQKPLCACDGRTFLSRCEF	2.16
DCAGSPQKPLCASDGRTFLSRCEH	3.79
DCAGSPQKPLCASDGRTFLSRCEQ	3.6
DCAGSPQKPLCASDGRTFLSRCEE	4.41
DCAGSPQKPLCASDGRTFLSRCEI	3.16
DCAGEPQKPLCASDGRTFLSRCEF	2.56
DCAGFPQKPLCASDGRTFLSRCEF	1.72
DCAGQPQKPLCASDGRTFLSRCEF	2.09
DCAGRPQKPLCASDGRTFLSRCEF	2.66
DCAGNPQKPLCASDGRTFLSRCEF	2.78

Variants of: B2
Assay: as above
Details: c terminus: a fixed tail appended

Variant	protein stability index
HIYPADFRFDKPKKSRSPASAEAP	1.9
HMYPADFRFDKPKKSRSPASAEAP	3.35
HAYPADFRFDKPKKSRSPASAEAP	4.37
HNYPADFRFDKPKKSRSPASAEAP	4.38
HHYPADFRFDKPKKSRSPASAEAP	3.58
HKYPADFRFDKPKKSRSPASAEAP	4.6
HRYPADFRFDKPKKSRSPASAEAP	4.1
HPYPADFRFDKPKKSRSPASAEAP	4.52
HQYPADFRFDKPKKSRSPASAEAP	3.59
HGYPADFRFDKPKKSRSPASAEAP	4.37
HVYPADFRFDKPKKSRSPASAEAP	2.69
HSYPADFRFDKPKKSRSPASAEAP	4.63
HDYPADFRFDKPKKSRSPASAEAP	4.91
HEYPADFRFDKPKKSRSPASAEAP	4.73
HFYPADFRFDKPKKSRSPASAEAP	4.37
HYYPADFRFDKPKKSRSPASAEAP	3.84
HCYPADFRFDKPKKSRSPASAEAP	3.53
HWYPADFRFDKPKKSRSPASAEAP	2.87
HTYPADFRFDKPKKSRSPASAEAP	4.64
SLYPADFRFDKPKKSRSPASAEAP	4.48
ALYPADFRFDKPKKSRSPASAEAP	3.95
RLYPADFRFDKPKKSRSPASAEAP	3.57

Variant	protein stability index
MLYPADFRFDKPKKSRSPASAEAP	4.09
VLYPADFRFDKPKKSRSPASAEAP	3.67
CLYPADFRFDKPKKSRSPASAEAP	3.59
ILYPADFRFDKPKKSRSPASAEAP	2.85
TLYPADFRFDKPKKSRSPASAEAP	4.19
LLYPADFRFDKPKKSRSPASAEAP	3.94
WLYPADFRFDKPKKSRSPASAEAP	2.69
FLYPADFRFDKPKKSRSPASAEAP	4.32
QLYPADFRFDKPKKSRSPASAEAP	3.65
YLYPADFRFDKPKKSRSPASAEAP	2.08
NLYPADFRFDKPKKSRSPASAEAP	4.2
PLYPADFRFDKPKKSRSPASAEAP	4.58
DLYPADFRFDKPKKSRSPASAEAP	4.13
KLYPADFRFDKPKKSRSPASAEAP	4.05
ELYPADFRFDKPKKSRSPASAEAP	3.81
GLYPADFRFDKPKKSRSPASAEAP	4.7
HLYFADFRFDKPKKSRSPASAEAP	2.85
HLYEADFRFDKPKKSRSPASAEAP	4.33
HLYAADFRFDKPKKSRSPASAEAP	3.96
HLYDADFRFDKPKKSRSPASAEAP	4.22
HLYHADFRFDKPKKSRSPASAEAP	3.95
HLYGADFRFDKPKKSRSPASAEAP	3.21

Variant	protein stability index
HLYCADFRFDKPKKSRSPASAEAP	3.54
HLFPADFRFDKPKKSRSPASAEAP	3.13
HLEPADFRFDKPKKSRSPASAEAP	3.71
HLAPADFRFDKPKKSRSPASAEAP	4.14
HLIPADFRFDKPKKSRSPASAEAP	3.73
HLVPADFRFDKPKKSRSPASAEAP	3.81
HLNPADFRFDKPKKSRSPASAEAP	2.43
HLDPADFRFDKPKKSRSPASAEAP	4.58
HLKPADFRFDKPKKSRSPASAEAP	3.84
HLTPADFRFDKPKKSRSPASAEAP	4.65
HLQPADFRFDKPKKSRSPASAEAP	3.85
HLHPADFRFDKPKKSRSPASAEAP	2.69
HLGPADFRFDKPKKSRSPASAEAP	4.38
HLSPADFRFDKPKKSRSPASAEAP	3.64
HLPPADFRFDKPKKSRSPASAEAP	4.73
HLLPADFRFDKPKKSRSPASAEAP	4.36
HLRPADFRFDKPKKSRSPASAEAP	4.26
HLWPADFRFDKPKKSRSPASAEAP	3.71
HLMPADFRFDKPKKSRSPASAEAP	4.4
HLCPADFRFDKPKKSRSPASAEAP	3.55
